This assay has as its target functional human IL-4 receptor (hIL-4R) on TF-1 cells (human) (UniProt P24394). As to the kind of experiment: displacement of I^125-hIL-4 from TF-1 cells.

As usually defined, the IC50 is the concentration that gives 50% inhibition. A low value points to inhibition by little substance.

B1: mouse IL-13 (mouse P600), E. coli-derived (ligand)
chain: APGPVPRSVSLPLTLKELIEELSNITQDQTPLCNGSMVWSVDLAAGGFCVALDSLTNISNCNAIYRTQRILHGLCNRKAPTTVSSLPDTKI
As for B1, the IC50 was 0.2 nM and the percent of the I^125-hIL-4 binding displaced was found to be 70%.

(Values after US5596072.)
